How the values were obtained:
[1] = target: T1, HPV 16 E7 peptide on HLA-A*02:01 (human); assay: multimer staining
T1 peptide: YMLDLQPET

[2] = target: T2, HPV 16 E6 peptide on HLA-A*02:01 (human); assay: multimer staining
T2 peptide: TIHDIILECV

[3] = target: T3, HPV 16 E7(11-19), single-substitution variant Y1A (synthetic scanning library) peptide on HLA-A*02:01 (human); assay: activation reporter or marker
T3 peptide: AMLDLQPET

[4] = target: T4, HPV 16 E7(11-19), single-substitution variant Y1N (synthetic scanning library) peptide on HLA-A*02:01 (human); assay: activation reporter or marker
T4 peptide: NMLDLQPET

[5] = target: T5, HPV 16 E7(11-19), single-substitution variant Y1H (synthetic scanning library) peptide on HLA-A*02:01 (human); assay: activation reporter or marker
T5 peptide: HMLDLQPET

[6] = target: T6, HPV 16 E7(11-19), single-substitution variant Y1I (synthetic scanning library) peptide on HLA-A*02:01 (human); assay: activation reporter or marker
T6 peptide: IMLDLQPET

[7] = target: T7, HPV 16 E7(11-19), single-substitution variant Y1L (synthetic scanning library) peptide on HLA-A*02:01 (human); assay: activation reporter or marker
T7 peptide: LMLDLQPET

[8] = target: T8, HPV 16 E7(11-19), single-substitution variant Y1W (synthetic scanning library) peptide on HLA-A*02:01 (human); assay: activation reporter or marker
T8 peptide: WMLDLQPET

[9] = target: T9, HPV 16 E7(11-19), single-substitution variant M2C (synthetic scanning library) peptide on HLA-A*02:01 (human); assay: activation reporter or marker
T9 peptide: YCLDLQPET

[10] = target: T10, HPV 16 E7(11-19), single-substitution variant M2Q (synthetic scanning library) peptide on HLA-A*02:01 (human); assay: activation reporter or marker
T10 peptide: YQLDLQPET

[11] = target: T11, HPV 16 E7(11-19), single-substitution variant M2L (synthetic scanning library) peptide on HLA-A*02:01 (human); assay: activation reporter or marker
T11 peptide: YLLDLQPET

[12] = target: T12, HPV 16 E7(11-19), single-substitution variant L3A (synthetic scanning library) peptide on HLA-A*02:01 (human); assay: activation reporter or marker
T12 peptide: YMADLQPET

[13] = target: T13, HPV 16 E7(11-19), single-substitution variant L5M (synthetic scanning library) peptide on HLA-A*02:01 (human); assay: activation reporter or marker
T13 peptide: YMLDMQPET

[14] = target: T14, HPV 16 E7(11-19), single-substitution variant E8A (synthetic scanning library) peptide on HLA-A*02:01 (human); assay: activation reporter or marker
T14 peptide: YMLDLQPAT

[15] = target: T15, HPV 16 E7(11-19), single-substitution variant E8N (synthetic scanning library) peptide on HLA-A*02:01 (human); assay: activation reporter or marker
T15 peptide: YMLDLQPNT

[16] = target: T16, HPV 16 E7(11-19), single-substitution variant E8Q (synthetic scanning library) peptide on HLA-A*02:01 (human); assay: activation reporter or marker
T16 peptide: YMLDLQPQT

[17] = target: T17, HPV 16 E7(11-19), single-substitution variant E8G (synthetic scanning library) peptide on HLA-A*02:01 (human); assay: activation reporter or marker
T17 peptide: YMLDLQPGT

[18] = target: T18, HPV 16 E7(11-19), single-substitution variant E8P (synthetic scanning library) peptide on HLA-A*02:01 (human); assay: activation reporter or marker
T18 peptide: YMLDLQPPT

[19] = target: T19, HPV 16 E7(11-19), single-substitution variant E8W (synthetic scanning library) peptide on HLA-A*02:01 (human); assay: activation reporter or marker
T19 peptide: YMLDLQPWT

[20] = target: T20, HPV 16 E7(11-19), single-substitution variant T9A (synthetic scanning library) peptide on HLA-A*02:01 (human); assay: activation reporter or marker
T20 peptide: YMLDLQPEA

[21] = target: T21, HPV 16 E7(11-19), single-substitution variant T9D (synthetic scanning library) peptide on HLA-A*02:01 (human); assay: activation reporter or marker
T21 peptide: YMLDLQPED

[22] = target: T22, HPV 16 E7(11-19), single-substitution variant T9I (synthetic scanning library) peptide on HLA-A*02:01 (human); assay: activation reporter or marker
T22 peptide: YMLDLQPEI

[23] = target: T23, HPV 16 E7(11-19), single-substitution variant T9M (synthetic scanning library) peptide on HLA-A*02:01 (human); assay: activation reporter or marker
T23 peptide: YMLDLQPEM

[24] = target: T24, HPV 16 E7(11-19), single-substitution variant T9F (synthetic scanning library) peptide on HLA-A*02:01 (human); assay: activation reporter or marker
T24 peptide: YMLDLQPEF

[25] = target: T25, HPV 16 E7(11-19), single-substitution variant T9S (synthetic scanning library) peptide on HLA-A*02:01 (human); assay: activation reporter or marker
T25 peptide: YMLDLQPES

B1: TCR 57 (TCR, V domains shown)
Valpha: TQLLEQSPQFLSIQEGENLTVYCNSSSVFSSLQWYRQEPGEGPVLLVTVVTGGEVKKLKRLTFQFGDARKDSSLHITAAQPGDTGLYLCAGARNFNKFYFGSGTKLNVKP
Vbeta: GAVVSQHPSWVICKSGTSVKIECRSLDFQATTMFWYRQFPKQSLMLMATSNEGSKATYEQGVEKDKFLINHASLTLSTLTVTSAHPEDSSFYICSARSWRGGLEQFFGPGTRLTVL
- binding result [1]: recognises
- binding result [2]: no recognition
- binding result [3]: recognises
- binding result [4]: recognises
- binding result [5]: recognises
- binding result [6]: recognises
- binding result [7]: recognises
- binding result [8]: recognises
- binding result [9]: recognises
- binding result [10]: recognises
- binding result [11]: recognises
- binding result [12]: recognises
- binding result [13]: recognises
- binding result [14]: recognises
- binding result [15]: recognises
- binding result [16]: recognises
- binding result [17]: recognises
- binding result [18]: recognises
- binding result [19]: recognises
- binding result [20]: recognises
- binding result [21]: recognises
- binding result [22]: recognises
- binding result [23]: recognises
- binding result [24]: recognises
- binding result [25]: recognises

Source: patent US20190321401A1 (JUNO THERAPEUTICS, published 2019)
